Our source for the probe concentration sufficient to completely remove active MALT1 from the extracts and probe concentration sufficient to obtain a robust increase in active MALT1 values is patent US20160327558A1.

Primed or numbered codes have the meaning given here. The star is where a group is joined. AOMK(3) = acyloxymethyl ketone at C-terminal Arg; Biotin = O=C1N[C@H]2[C@H](CS[C@H]2CCCCC(=O)*)N1 A value given as a limit tells only on which side of the number the result lay.

For assay [1], the target named is active endogenous MALT1 (stimulated Jurkat T cells, stimulated primary human PBMCs and T cells, ABC DLBCL cells) (human) (UniProt Q9UDY8). Briefly: probe 7 pulldown with streptavidin beads; supernatant tested with probe 6.
Assay [2] shares this target. Briefly: ELISA-type assay on streptavidin-coated plates, 2×10^6 Jurkat T cells.

The molecule Ac-K(Biotin)LRSR-{AOMK(3)} [probe 7 (biotin-coupled; Ac-Lys(biotin)-LRSR-AOMK)] showed a probe concentration sufficient to completely remove active MALT1 from the extracts in assay [1] of 100 nM. This molecule also returned a probe concentration sufficient to obtain a robust increase in active MALT1 in assay [2] of under 10 nM.
